These results are taken from patent US20230338524A1.

For assay [1], the target named is soluble murine VEGFR2 (murine) (UniProt P35918). The assay can be described thus: ELISA, OD450, panel 'mVEGFR2', antibody titrated (Log (M)). In general terms: An ELISA detects its analyte on a solid surface through an enzyme-linked reagent.
The target of a further assay is mouse VEGFR2 (mouse) (UniProt P35918). The assay can be described thus: Blocking ELISA, panel 'mVEGF-mVEGFR2'; blocked ligand murine VEGF; antibody titrated (Log (M)).
Chain of mouse VEGFR2 (mouse) (P35918 20-762 limits assumed): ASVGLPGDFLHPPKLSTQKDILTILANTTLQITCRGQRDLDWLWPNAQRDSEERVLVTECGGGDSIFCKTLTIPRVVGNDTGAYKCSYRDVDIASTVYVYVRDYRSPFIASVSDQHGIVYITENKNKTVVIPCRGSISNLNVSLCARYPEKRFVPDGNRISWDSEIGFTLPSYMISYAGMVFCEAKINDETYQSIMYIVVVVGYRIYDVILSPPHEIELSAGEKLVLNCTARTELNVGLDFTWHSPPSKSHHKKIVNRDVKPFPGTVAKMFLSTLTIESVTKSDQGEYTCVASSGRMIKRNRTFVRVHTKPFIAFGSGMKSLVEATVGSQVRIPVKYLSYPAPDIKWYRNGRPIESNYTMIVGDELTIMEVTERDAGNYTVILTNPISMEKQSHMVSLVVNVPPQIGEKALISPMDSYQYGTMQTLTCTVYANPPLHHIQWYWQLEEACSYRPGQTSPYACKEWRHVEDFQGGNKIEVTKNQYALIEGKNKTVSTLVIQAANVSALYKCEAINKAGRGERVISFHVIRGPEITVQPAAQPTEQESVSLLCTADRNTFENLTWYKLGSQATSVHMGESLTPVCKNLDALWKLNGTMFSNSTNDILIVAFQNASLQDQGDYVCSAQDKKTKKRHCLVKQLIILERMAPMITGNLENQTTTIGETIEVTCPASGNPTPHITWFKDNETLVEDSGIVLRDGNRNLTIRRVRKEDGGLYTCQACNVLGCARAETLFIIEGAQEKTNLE

Chain of soluble murine VEGFR2 (murine) (P35918 20-762 limits assumed): as above

B1: DC101 (a murine monoclonal Ab that binds to murine VEGFR2) (antibody, from another filing, V domains shown)
VH: EVQLVETGGGLVQPGNSLKLSCATSGFIFSTTWMNWIRQTPGKRLEWLAQIEDKSNNYFISYSESVKGRFTISRDDSKSSVYLQMNNLKEEDTAIYYCSWKYRSNYYFDYWGQGVMVTVSS
VL: DIVLTQSPALAVSLEQRATISCKTSQNVDYYGISYLHWYQQKPGQQPKLLIYEGSNLASGIPARFSGSGSGTDFTLTIDPVEADDIVTYYCQQSKDYPYTFGAGTKLELKR
In assay [1], B1 had a concentration giving a half-maximal response (EC50 (read off the curve)) of 0.3 nM. Also, in the assay with mouse VEGFR2 (mouse), the IC50 (read off the curve) came to 0.5 nM.

Usually EC50 (read off the curve) stands for the concentration needed to bring the measured effect to its halfway point.
